Source: patent publication US20230070261A1 (UCB, published 2023)
Several values for one entry are separate records, joined by “and”; a condition that tells them apart may be missing. Equal entries are not always repeated. Where two headings read alike, the source gives them in different places.

Assays:
Active human KLK5 [1] = biological target: T1, Active human KLK5 (human, UniProt Q9Y337 67-293)
Active human KLK5 [2] = biological target: T1, Active human KLK5; assay: cell-based or functional assay
Active human KLK5 [3] = biological target: T1, Active human KLK5; assay: SPR (Biacore T200, 25 C); IgG captured on anti-human IgG Fc, human KLK5 as analyte; 1:1 model; duplicate sample
Procedure: (§1) The kinetics of these grafts for binding to human KLK5 were assessed by surface plasmon resonance (Biacore T200) at 25° C.
(§2) A goat anti-human IgG Fc specific antibody (Jackson ImmunoResearch) was immobilised on a CM5 Sensor Chip via amine coupling chemistry to a level of approximately 7000RU. Each analysis cycle consisted of capture of the anti-KLK5 IgG molecules to the anti Fc surface, injection of KLK5 analyte (prepared in house) for 180 s at 30 μl/min followed by 600 s dissociation. At the end of each cycle the surface was regenerated at a flowrate of 10 μL/min using a 60 s injection of 50 mM HCl followed by a 30 s injection of 5 mM NaOH and a final 60 s injection of 50 mM HCl. Human KLK5 was titrated from 20 nM to 0.74 nM (3×3-fold serial dilutions) in HBS-EP+running buffer (GE Healthcare) supplemented with NaCl to a final concentration of 300 mM. Buffer blank injections were included to subtract instrument noise and drift.
(§3) Kinetic parameters were determined using a 1:1 binding model using Biacore T200 Evaluation software.

Active human KLK5 [4] = biological target: T1, Active human KLK5; assay: SPR (Biacore T200, 25 C); IgG captured on anti-human IgG Fc, human KLK5 as analyte; 1:1 model
Procedure: as §1, §2, §3

Active human KLK5 [5] = biological target: T1, Active human KLK5; assay: SPR; rabbit antibody 10273 captured on anti-rabbit Fc and saturated with 20 nM human KLK5, LEKTI D5 Fab fusion as analyte (KLK5 in complex with 10273); average value n = 2; human KLK5 already in complex with captured rabbit antibody 10273; LEKTI D5 Fab fusion as analyte; average n = 2
Procedure: (§4) 20 nM of human KLK5 was then injected until the surface reached saturation. LEKTI D5 Fab fusion protein (generated as described in example 1) was then injected at concentrations between 30 μM and 100 nM. Values from buffer only injections were first subtracted from those obtained with the analytes before fitting to a 1:1 binding kinetic model in Biacore™ evaluation software (GE Life Sciences™)
(§5) As reference, LEKTI D5 Fab fusion protein was immobilised to the chip surface prior to monitoring the interaction with human KLK5.

Active human KLK5 [6] = biological target: T1, Active human KLK5; assay: SPR; rabbit antibody 10273 captured on anti-rabbit Fc and saturated with 20 nM human KLK5, LEKTI D5 Fab fusion as analyte (KLK5 in complex with 10273); 1:1 model
Procedure: as §4, §5

| Kd (Active human KLK5 [4]) [pM] | koff (Active human KLK5 [4]) [s⁻¹] | kon (Active human KLK5 [4]) [M⁻¹ s⁻¹] | Molecule | further results |
| --- | --- | --- | --- | --- |
| 164 | 8.45e-05 | 514000 | 10273 gL2gH1 (antibody, human IgG4 S228P, kappa, V domains shown, sulphation (+80 Da) of Tyr 9 of CDR-H3, 95% of heavy chain (hIgG4P, Table 7), Humanized graft) VH: EVQLVESGGGLVQPGGSLRLSCAVSGFSLSSYGMSWVRQAPGKGLEWIGIISSSGSTYYASWAKGRFTISKDSSKNTVYLQMNSLRAEDTAVYYCARDHIYRYDDYGDYPTYYGMDPWGQGTTVTVSS VL: AIQLTQSPSSLSASVGDRVTITCQSSQSVYNNNDLAWYQQKPGKAPKLLIYRASTLASGVPSRFSGSGSGTDFTLTISSLQPEDFATYYCLGGYDDDVDTYTFGGGTKVEIKR |  |
| 249 | 0.000139 | 558000 | 10273 gL2-Q1RgH1-D19N-Y15F (antibody, human IgG4 S228P, kappa, V domains shown, sulphation (+80 Da) of Tyr 9 of CDR-H3, 85% of heavy chain (Table 7), Humanized graft, hIgG4P) VH: EVQLVESGGGLVQPGGSLRLSCAVSGFSLSSYGMSWVRQAPGKGLEWIGIISSSGSTYYASWAKGRFTISKDSSKNTVYLQMNSLRAEDTAVYYCARDHIYRYDDYGDYPTFYGMNPWGQGTTVTVSS VL: AIQLTQSPSSLSASVGDRVTITCRSSQSVYNNNDLAWYQQKPGKAPKLLIYRASTLASGVPSRFSGSGSGTDFTLTISSLQPEDFATYYCLGGYDDDVDTYTFGGGTKVEIKR |  |
| 5770 | 0.0016 | 277000 | 10273 gL2-Q1RgH1-D19N-Y16F (antibody, human IgG4 S228P, kappa, V domains shown, sulphation (+80 Da) of Tyr 9 of CDR-H3, 75% of heavy chain (Table 7), Humanized graft, hIgG4P) VH: EVQLVESGGGLVQPGGSLRLSCAVSGFSLSSYGMSWVRQAPGKGLEWIGIISSSGSTYYASWAKGRFTISKDSSKNTVYLQMNSLRAEDTAVYYCARDHIYRYDDYGDYPTYFGMNPWGQGTTVTVSS VL: AIQLTQSPSSLSASVGDRVTITCRSSQSVYNNNDLAWYQQKPGKAPKLLIYRASTLASGVPSRFSGSGSGTDFTLTISSLQPEDFATYYCLGGYDDDVDTYTFGGGTKVEIKR |  |

More lines, now with the values behind:

| Molecule | Kd (Active human KLK5 [4]) [pM] | koff (Active human KLK5 [4]) [s⁻¹] | kon (Active human KLK5 [4]) [M⁻¹ s⁻¹] | further results |
| --- | --- | --- | --- | --- |
| Human LEKTI D5 rabbit Fc (Fc fusion) |  |  |  | IC50 (read off the curve) (Active human KLK5 [1]): 200000 pM; IC50 (M), inhibition of kallikrein protease activity (fluorogenic peptide substrate) (Active human KLK5 [2]): 1.03e-10 M |
| Rabbit antibody 10273 (antibody, V domains shown) VH: QSVEESGGRLVTPGTPLTLTCTVSGFSLSSYGMSWVRQAPGKGLEWIGIISSSGSTYYASWAKGRFTISKTSTTVDLKIASPTTEDTATYFCARDHIYRYDDYGDYPTYYGMDPWGPGTLVTVSS VL: AVVLTQTPSPMSAAVGGTVTISCQSSQSVYNNNDLAWYQQKPGQPPKLLIYRASTLASGVPSRFSGSGSGTQFTLTISGVQCDDAATYYCLGGYDDDVDTYTFGGGTEVVVK |  |  |  | IC50 (read off the curve) (Active human KLK5 [2]): ~50000 pM |
| 10273gL2-Q1RgH1-D19N (antibody, human IgG4 S228P, kappa, V domains shown, sulphation (+80 Da) of Tyr 9 of CDR-H3, 80% of heavy chain (Table 7), Humanized graft, hIgG4P) VH: EVQLVESGGGLVQPGGSLRLSCAVSGFSLSSYGMSWVRQAPGKGLEWIGIISSSGSTYYASWAKGRFTISKDSSKNTVYLQMNSLRAEDTAVYYCARDHIYRYDDYGDYPTYYGMNPWGQGTTVTVSS VL: AIQLTQSPSSLSASVGDRVTITCRSSQSVYNNNDLAWYQQKPGKAPKLLIYRASTLASGVPSRFSGSGSGTDFTLTISSLQPEDFATYYCLGGYDDDVDTYTFGGGTKVEIKR |  |  |  | Kd (Active human KLK5 [3]): 410 pM and 309 pM; koff (Active human KLK5 [3]): 0.000175 s⁻¹ and 0.000133 s⁻¹; kon (Active human KLK5 [3]): 427000 M⁻¹ s⁻¹ and 257000 M⁻¹ s⁻¹ |
| 10273 gL2-Q1RgH1-D19N-T14S (antibody, human IgG4 S228P, kappa, V domains shown, sulphation (+80 Da) of Tyr 9 of CDR-H3, 65% of heavy chain (Table 7), Humanized graft, hIgG4P) VH: EVQLVESGGGLVQPGGSLRLSCAVSGFSLSSYGMSWVRQAPGKGLEWIGIISSSGSTYYASWAKGRFTISKDSSKNTVYLQMNSLRAEDTAVYYCARDHIYRYDDYGDYPSYYGMNPWGQGTTVTVSS VL: AIQLTQSPSSLSASVGDRVTITCRSSQSVYNNNDLAWYQQKPGKAPKLLIYRASTLASGVPSRFSGSGSGTDFTLTISSLQPEDFATYYCLGGYDDDVDTYTFGGGTKVEIKR | 644 | 0.000165 | 257000 |  |
| 10273 gL2-Q1RgH1-D19N-T14V (antibody, human IgG4 S228P, kappa, V domains shown, sulphation (+80 Da) of Tyr 9 of CDR-H3, 75% of heavy chain (Table 7), Humanized graft, hIgG4P) VH: EVQLVESGGGLVQPGGSLRLSCAVSGFSLSSYGMSWVRQAPGKGLEWIGIISSSGSTYYASWAKGRFTISKDSSKNTVYLQMNSLRAEDTAVYYCARDHIYRYDDYGDYPVYYGMNPWGQGTTVTVSS VL: AIQLTQSPSSLSASVGDRVTITCRSSQSVYNNNDLAWYQQKPGKAPKLLIYRASTLASGVPSRFSGSGSGTDFTLTISSLQPEDFATYYCLGGYDDDVDTYTFGGGTKVEIKR | 6900 | 0.00251 | 364000 |  |
| 10273 gL2-Q1RgH1-D19N-Y6F (antibody, human IgG4 S228P, kappa, V domains shown, sulphation (+80 Da) of Tyr 9 of CDR-H3, 75% of heavy chain (Table 7), Humanized graft, hIgG4P) VH: EVQLVESGGGLVQPGGSLRLSCAVSGFSLSSYGMSWVRQAPGKGLEWIGIISSSGSTYYASWAKGRFTISKDSSKNTVYLQMNSLRAEDTAVYYCARDHIYRFDDYGDYPTYYGMNPWGQGTTVTVSS VL: AIQLTQSPSSLSASVGDRVTITCRSSQSVYNNNDLAWYQQKPGKAPKLLIYRASTLASGVPSRFSGSGSGTDFTLTISSLQPEDFATYYCLGGYDDDVDTYTFGGGTKVEIKR | 625 | 0.000186 | 298000 |  |
| 10273 gL2-Q1RgH1-D19N-Y4F (antibody, human IgG4 S228P, kappa, V domains shown, sulphation (+80 Da) of Tyr 9 of CDR-H3, 85% of heavy chain (Table 7), Humanized graft, hIgG4P) VH: EVQLVESGGGLVQPGGSLRLSCAVSGFSLSSYGMSWVRQAPGKGLEWIGIISSSGSTYYASWAKGRFTISKDSSKNTVYLQMNSLRAEDTAVYYCARDHIFRYDDYGDYPTYYGMNPWGQGTTVTVSS VL: AIQLTQSPSSLSASVGDRVTITCRSSQSVYNNNDLAWYQQKPGKAPKLLIYRASTLASGVPSRFSGSGSGTDFTLTISSLQPEDFATYYCLGGYDDDVDTYTFGGGTKVEIKR | 1150 | 0.000519 | 451000 |  |
| 10273 gL2-Q1RgH1-D19N-Y9F (antibody, human IgG4 S228P, kappa, V domains shown, Humanized graft, hIgG4P) VH: EVQLVESGGGLVQPGGSLRLSCAVSGFSLSSYGMSWVRQAPGKGLEWIGIISSSGSTYYASWAKGRFTISKDSSKNTVYLQMNSLRAEDTAVYYCARDHIYRYDDFGDYPTYYGMNPWGQGTTVTVSS VL: AIQLTQSPSSLSASVGDRVTITCRSSQSVYNNNDLAWYQQKPGKAPKLLIYRASTLASGVPSRFSGSGSGTDFTLTISSLQPEDFATYYCLGGYDDDVDTYTFGGGTKVEIKR | 554 | 0.0002 | 362000 |  |
| 10273 gL2-Q1RgH1-D19N-Y12F (antibody, human IgG4 S228P, kappa, V domains shown, sulphation (+80 Da) of Tyr 9 of CDR-H3, 75% of heavy chain (Table 7), Humanized graft, hIgG4P) VH: EVQLVESGGGLVQPGGSLRLSCAVSGFSLSSYGMSWVRQAPGKGLEWIGIISSSGSTYYASWAKGRFTISKDSSKNTVYLQMNSLRAEDTAVYYCARDHIYRYDDYGDFPTYYGMNPWGQGTTVTVSS VL: AIQLTQSPSSLSASVGDRVTITCRSSQSVYNNNDLAWYQQKPGKAPKLLIYRASTLASGVPSRFSGSGSGTDFTLTISSLQPEDFATYYCLGGYDDDVDTYTFGGGTKVEIKR | 318 | 0.000138 | 432000 |  |
| LEKTI D5 Fab fusion (other, also called LEKTI D5 Fab fusion protein; LEKTI D5Fab fusion protein) heavy: EVQLLESGGGLVQPGGSLRLSCAVSGIDLSNYAINWVRQAPGKGLEWIGIIWASGTTFYATWAKGRFTISRDNSGGGGSGGGGSREIVKLCSQYQNQAKNGILFCTRENDPIRGPDGKMHGNLCSMCQAYFQAENEEKKKAEARARSGGGGGGGGSKNTVYLQMNSLRAEDTAVYYCARTVPGYSTAPYFDLWGQGTLVTVSSASTKGPSVFPLAPSSKSTSGGTAALGCLVKDYFPEPVTVSWNSGALTSGVHTFPAVLQSSGLYSLSSVVTVPSSSLGTQTYICNVNHKPSNTKVDKKVEPKSCHHHHHHHHHH light: DIQMTQSPSSVSASVGDRVTITCQSSPSVWSNFLSWYQQKPGKAPKLLIYEASKLTSGVPSRFSGSGSGTDFTLTISSLQPEDFATYYCGGGYSSISDTTFGGGTKVEIKRTVAAPSVFIFPPSDEQLKSGTASVVCLLNNFYPREAKVQWKVDNALQSGNSQESVTEQDSKDSTYSLSSTLTLSKADYEKHKVYACEVTHQGLSSPVTKSFNRGEC |  |  |  | Kd (Active human KLK5 [5]): 13400 pM; koff (Active human KLK5 [6]): 0.000565 s⁻¹; kon (Active human KLK5 [6]): 28700 M⁻¹ s⁻¹ |
